Biological target: truncated human ACE2 ectodomain (residues 19–613) with C-terminal AVI-tag and 6xHis-tag, biotinylated (human) (UniProt Q9BYF1)
Assay: BLI

Substance | t1/2 [min]
SARS-CoV-2 RBD variant N439K (from UniProt P0DTC2 319-541) (domain or fragment) | 1.85
SARS-CoV-2 RBD variant N501Y (from UniProt P0DTC2 319-541) (domain or fragment) | 5.49

— paper PMC8409985
